Source: the supplement of paper PMC11246515
± gives the standard deviation of the averaged measurements.

Experiment: total protein half-life in vivo (active degradation + dilution); higher = more stable protein
[1] = E. coli NCM3722 delta-clpP delta-lon delta-hslV, growth: N-lim chemostat, doubling time 6 h
[2] = wild type E. coli NCM3722, growth: N-lim chemostat, doubling time 6 h
[3] = wild type E. coli NCM3722, growth: P-lim chemostat, doubling time 6 h
[4] = wild type E. coli NCM3722, growth: N-lim chemostat, doubling time 12 h
[5] = wild type E. coli NCM3722, growth: P-lim chemostat, doubling time 12 h
[6] = E. coli NCM3722 delta-clpP, growth: N-lim chemostat, doubling time 6 h
[7] = E. coli NCM3722 delta-hslV, growth: N-lim chemostat, doubling time 6 h
[8] = E. coli NCM3722 delta-lon, growth: N-lim chemostat, doubling time 6 h
[9] = E. coli NCM3722 delta-smpB, growth: N-lim chemostat, doubling time 6 h
[10] = wild type E. coli NCM3722, growth: C-lim chemostat, doubling time 3 h
[11] = wild type E. coli NCM3722, growth: C-lim chemostat, doubling time 6 h
[12] = wild type E. coli NCM3722, growth: C-lim chemostat, doubling time 12 h

Sequence	total protein half-life in vivo [1] [h]	total protein half-life in vivo [2] [h]	total protein half-life in vivo [3] [h]	total protein half-life in vivo [4] [h]	total protein half-life in vivo [5] [h]	total protein half-life in vivo [6] [h]	total protein half-life in vivo [7] [h]	total protein half-life in vivo [8] [h]	total protein half-life in vivo [9] [h]	total protein half-life in vivo [10] [h]	total protein half-life in vivo [11] [h]	total protein half-life in vivo [12] [h]
MMDNDNSLNKRPTFKRALRNISMTSIFITMMLIWLLLSVTSVLTLKQYAQKNLALTAATMTYSLEAAVVFADGPAATETLAALGQQGQFSTAEVRDKQQNILASWHYTRKDPGDTFSNFISHWLFPAPIIQPIRHNGETIGEVRLTARDSSISHFIWFSLAVLTGCILLASGIAITLTRHLHNGLVEALKNITDVVHDVRSNRNFSRRVSEERIAEFHRFALDFNSLLDEMEEWQLRLQAKNAQLLRTALHDPLTGLANRAAFRSGINTLMNNSDARKTSALLFLDGDNFKYINDTWGHATGDRVLIEIAKRLAEFGGLRHKAYRLGGDEFAMVLYDVQSESEVQQICSALTQIFNLPFDLHNGHQTTMTLSIGYAMTIEHASAEKLQELADHNMYQAKHQRAEKLVR	4.053 ± 0.0067	0.877	1.69	–	–	–	–	–	–	–	–	–
MMEQSLIPQTPVLPLTAQRTVKRALTLLDRHLRETGVAFTSTQAARDWLKLKMAGLEREEFMMLYLNQQNQLIAHETLFAGSISSTEVHPREVVKRALYFNAAAVILAHNHPSGDTTPSQADKTITQRLVQALQLVDIRVPDHLIVGGRQIYSFAEHGLL	–	–	–	8.33	10.4	–	–	–	–	–	–	–
MMGKLIWLMGPSGSGKDSLLAELRLREQTQLLVAHRYITRDASAGSENHIALSEQEFFTRAGQNLLALSWHANGLYYGVGVEIDLWLHAGFDVLVNGSRAHLPQARARYQSALLPVCLQVSPEILRQRLENRGRENASEINARLARAARYTPQDCHTLNNDGSLRQSVDTLLTLIHQKEKHHACL	5.33	–	0.578	–	1.28	–	–	–	–	–	–	–
MMILSILATVVLLGALFYHRVSLFISSLILLAWTAALGVAGLWSAWVLVPLAIILVPFNFAPMRKSMISAPVFRGFRKVMPPMSRTEKEAIDAGTTWWEGDLFQGKPDWKKLHNYPQPRLTAEEQAFLDGPVEEACRMANDFQITHELADLPPELWAYLKEHRFFAMIIKKEYGGLEFSAYAQSRVLQKLSGVSGILAITVGVPNSLGPGELLQHYGTDEQKDHYLPRLARGQEIPCFALTSPEAGSDAGAIPDTGIVCMGEWQGQQVLGMRLTWNKRYITLAPIATVLGLAFKLSDPEKLLGGAEDLGITCALIPTTTPGVEIGRRHFPLNVPFQNGPTRGKDVFVPIDYIIGGPKMAGQGWRMLVECLSVGRGITLPSNSTGGVKSVALATGAYAHIRRQFKISIGKMEGIEEPLARIAGNAYVMDAAASLITYGIMLGEKPAVLSAIVKYHCTHRGQQSIIDAMDITGGKGIMLGQSNFLARAYQGAPIAITVEGANILTRSMMIFGQGAIRCHPYVLEEMEAAKNNDVNAFDKLLFKHIGHVGSNKVRSFWLGLTRGLTSSTPTGDATKRYYQHLNRLSANLALLSDVSMAVLGGSLKRRERISARLGDILSQLYLASAVLKRYDDEGRNEADLPLVHWGVQDALYQAEQAMDDLLQNFPNRVVAGLLNVVIFPTGRHYLAPSDKLDHKVAKILQVPNATRSRIGRGQYLTPSEHNPVGLLEEALVDVIAADPIHQRICKELGKNLPFTRLDELAHNALVKGLIDKDEAAILVKAEESRLRSINVDDFDPEELATKPVKLPEKVRKVEAA	6.66 ± 0.19	2.2 ± 0.1	2.01 ± 0.24	3.64 ± 0.49	3.65 ± 0.59	5.65 ± 0.067	2.2 ± 0.21	2.48 ± 0.52	1.82 ± 0.079	1.43 ± 0.11	1.86 ± 0.12	2.9 ± 0.51
MMILVTGGARSGKSRHAEALIGDSSQVLYIATSQILDDEMAARIEHHRQGRPEHWRTVERWQHLDELIHADINPNEVVLLECVTTMVTNLLFDYGGDKDPDEWDYQAMEQAINAEIQSLIAACQRCPAKVVLVTNEVGMGIVPESRLARHFRDIAGRVNQQLAAAANEVWLVVSGIGVKIK [P0AE76]	4.52	3.85	5.94	8.3	9.83 ± 1.8	3.9	4.32	–	4.68	–	5.17	10.5
MMITLRKLPLAVAVAAGVMSAQAMAVDFHGYARSGIGWTGSGGEQQCFQTTGAQSKYRLGNECETYAELKLGQEVWKEGDKSFYFDTNVAYSVAQQNDWEATDPAFREANVQGKNLIEWLPGSTIWAGKRFYQRHDVHMIDFYYWDISGPGAGLENIDVGFGKLSLAATRSSEAGGSSSFASNNIYDYTNETANDVFDVRLAQMEINPGGTLELGVDYGRANLRDNYRLVDGASKDGWLFTAEHTQSVLKGFNKFVVQYATDSMTSQGKGLSQGSGVAFDNEKFAYNINNNGHMLRILDHGAISMGDNWDMMYVGMYQDINWDNDNGTKWWTVGIRPMYKWTPIMSTVMEIGYDNVESQRTGDKNNQYKITLAQQWQAGDSIWSRPAIRVFATYAKWDEKWGYDYTGNADNNANFGKAVPADFNGGSFGRGDSDEWTFGAQMEIWW	6.61	> 8	7.548 ± 0.042	> 16	> 16	> 8	–	–	6.71 ± 0.23	3.38 ± 0.6	6.85 ± 1.6	> 16
MMKLMFASDIHGSLPATERVLELFAQSGAQWLVILGDVLNHGPRNALPEGYAPAKVAERLNEVAHKVIAVRGNCDSEVDQMLLHFPITAPWQQVLLEKQRLFLTHGHLFGPENLPALNQNDVLVYGHTHLPVAEQRGEIFHFNPGSVSIPKGGNPASYGMLDNDVLSVIALNDQSIIAQVAINP	–	4 ± 0.66	5.32 ± 0.64	6.84 ± 0.35	10.1 ± 0.38	4.01 ± 0.21	3.75 ± 0.28	4.04 ± 0.35	3.97 ± 0.34	2.7 ± 0.24	5.48 ± 0.14	9.4066 ± 0.0045
MMLSKKNSETLENFSEKLEVEGRSLWQDARRRFMHNRAAVASLIVLVLIALFVILAPMLSQFAYDDTDWAMMSSAPDMESGHYFGTDSSGRDLLVRVAIGGRISLMVGVAAALVAVVVGTLYGSLSGYLGGKVDSVMMRLLEILNSFPFMFFVILLVTFFGQNILLIFVAIGMVSWLDMARIVRGQTLSLKRKEFIEAAQVGGVSTSGIVIRHIVPNVLGVVVVYASLLVPSMILFESFLSFLGLGTQEPLSSWGALLSDGANSMEVSPWLLLFPAGFLVVTLFCFNFIGDGLRDALDPKDR [P0AFH6]	5.16 ± 0.26	5.17 ± 0.17	5.37 ± 0.46	8.49 ± 0.1	9.83 ± 1.2	5.51 ± 0.1	–	4.46 ± 0.22	5.01 ± 0.59	3.23 ± 0.41	5.484 ± 0.036	10.8 ± 2.5
MMNFNNVFRWHLPFLFLVLLTFRAAAADTLLILGDSLSAGYRMSASAAWPALLNDKWQSKTSVVNASISGDTSQQGLARLPALLKQHQPRWVLVELGGNDGLRGFQPQQTEQTLRQILQDVKAANAEPLLMQIRLPANYGRRYNEAFSAIYPKLAKEFDVPLLPFFMEEVYLKPQWMQDDGIHPNRDAQPFIADWMAKQLQPLVNHDS [P0ADA1]	4.1 ± 0.072	5.25 ± 0.28	5.23 ± 0.37	11 ± 3.7	11.4 ± 0.78	4.87 ± 0.67	6.432 ± 0.063	6.67 ± 0.4	4.99 ± 0.46	3.25 ± 0.11	6.228 ± 0.058	11.1 ± 5.7
MMNKSNFEFLKGVNDFTYAIACAAENNYPDDPNTTLIKMRMFGEATAKHLGLLLNIPPCENQHDLLRELGKIAFVDDNILSVFHKLRRIGNQAVHEYHNDLNDAQMCLRLGFRLAVWYYRLVTKDYDFPVPVFVLPERGENLYHQEVLTLKQQLEQQVREKAQTQAEVEAQQQKLVALNGYIAILEGKQQETEAQTQARLAALEAQLAEKNAELAKQTEQERKAYHKEITDQAIKRTLNLSEEESRFLIDAQLRKAGWQADSKTLRFSKGARPEPGVNKAIAEWPTGKDETGNQGFADYVLFVGLKPIAVVEAKRNNIDVPARLNESYRYSKCFDNGFLRETLLEHYSPDEVHEAVPEYETSWQDTSGKQRFKIPFCYSTNGREYRATMKTKSGIWYRDVRDTRNMSKALPEWHRPEELLEMLGSEPQKQNQWFADNPGMSELGLRYYQEDAVRAVEKAIVKGQQEILLAMATGTGKTRTAIAMMFRLIQSQRFKRILFLVDRRSLGEQALGAFEDTRINGDTFNSIFDIKGLTDKFPEDSTKIHVATVQSLVKRTLQSDEPMPVARYDCIVVDEAHRGYILDKEQTEGELQFRSQLDYVSAYRRILDHFDAVKIALTATPALHTVQIFGEPVYRYTYRTAVIDGFLIDQDPPIQIITRNAQEGVYLSKGEQVERISPQGEVINDTLEDDQDFEVADFNRGLVIPAFNRAVCNELTNYLDPTGSQKTLVFCVTNAHADMVVEELRAAFKKKYPQLEHDAIIKITGDADKDARKVQTMITRFNKERLPNIVVTVDLLTTGVDIPSICNIVFLRKVRSRILYEQMKGRATRLCPEVNKTSFKIFDCVDIYSTLESVDTMRPVVVRPKVELQTLVNEITDSETYKITEADGRSFAEHSHEQLVAKLQRIIGLATFNRDRSETIDKQVRRLDELCQDAAGVNFNGFASRLREKGPHWSAEVFNKLPGFIARLEKLKTDINNLNDAPIFLDIDDEVVSVKSLYGDYDTPQDFLEAFDSLVQRSPNAQPALQAVINRPRDLTRKGLVELQEWFDRQHFEESSLRKAWKETRNEDIAARLIGHIRRAAVGDALKPFEERVDHALTRIKGENDWSSEQLSWLDRLAQALKEKVVLDDDVFKTGNFHRRGGKAMLQRTFDDNLDTLLGKFSDYIWDELA	5.34 ± 0.76	3.52 ± 0.2	3.94 ± 0.11	5.31 ± 0.98	6.58 ± 0.092	4.93 ± 0.26	3.45 ± 0.22	3.899 ± 0.015	3.07 ± 0.13	2.49 ± 0.13	4.7 ± 0.1	7.2 ± 0.38
MMNPVLWLQMTNMISYQGLVRTFLNKNDLKAFIAFPSSLYPDDPNWIPPLFIERNEHLSAKNPGTDHIIWQAWVAKKAGQIVGRITAQIDTLHRERYGKDTGHFGMIDAIDDPQVFAALFGAAEAWLKSQGASKISGPFSLNINQESGLLIEGFDTPPCAMMPHGKPWYAAHIEQLGYHKGIDLLAWWMQRTDLTFSPALKKLMDQVRKKVTIRCINRQRFAEEMQILREIFNSGWQHNWGFVPFTEHEFATMGDQLKYLVPDDMIYIAEIDSAPCAFIVGLPNINEAIADLNGSLFPFGWAKLLWRLKVSGVRTARVPLMGVRDEYQFSRIGPVIALLLIEALRDPFARRKIDALEMSWILETNTGMNNMLERIGAEPYKRYRLYEKQI	–	–	–	–	–	–	2.23	–	3.38	–	–	–
MMNTEGNNGNKPLGLWNVVSIGIGAMVGAGIFALLGQAALLMEASTWVAFAFGGIVAMFSGYAYARLGASYPSNGGIIDFFRRGLGNGVFSLALSLLYLLTLAVSIAMVARAFGAYAVQFLHEGSQEEHLILLYALGIIAVMTLFNSLSNHAVGRLEVILVGIKMMILLLLIIAGVWSLQPAHISVSAPPSSGAFFSCIGITFLAYAGFGMMANAADKVKDPQVIMPRAFLVAIGVTTLLYISLALVLLSDVSALELEKYADTAVAQAASPLLGHVGYVIVVIGALLATASAINANLFAVFNIMDNMGSERELPKLMNKSLWRQSTWGNIIVVVLIMLMTAALNLGSLASVASATFLICYLAVFVVAIRLRHDIHASLPILIVGTLVMLLVIVGFIYSLWSQGSRALIWIIGSLLLSLIVAMVMKRNKTV	–	–	–	–	–	6.11	–	–	–	–	–	–
MMQHQVNVSARFNPETLERVLRVVRHRGFHVCSMNMAAASDAQNINIELTVASPRSVDLLFSQLNKLVDVAHVAICQSTTTSQQIRA [P0ADG1]	–	0.823	0.343	0.848 ± 0.14	0.967 ± 0.53	0.96	–	0.664	–	0.829 ± 0.59	0.318	0.533
MMQPVINAPEIATAREQQLFNGKNFHVFIYNKTESISGLHQHDYYEFTLVLTGRYFQEINGKRVLLERGDFVFIPLGSHHQSFYEFGATRILNVGISKRFFEQHYLPLLPYCFVASQVYRTNNAFLTYVETVISSLNFRETGLEEFVEMVTFYVINRLRHYREEQVIDDVPQWLKSTVEKMHDKEQFSESALENMVALSAKSQEYLTRATQRYYGKTPMQIINEIRINFAKKQLEMTNYSVTDIAFEAGYSSPSLFIKTFKKLTSFTPKSYRKKLTEFNQ	5.04 ± 0.62	–	–	–	–	–	–	–	–	1.18 ± 0.012	1.89 ± 0.2	1.55
